Assay: NCT03311724: nausea, vomiting and diarrhea, new events per interval
Assay type: in vivo, human
Details: N = 28
Excerpt: This is a 12-week treatment with a 1 week screening (Visit 1) followed by a 1 week lead-in (Visit 2), then 12 weeks of treatment (Visits 3-10, including telephone visits), then followed by 4-week safety follow-up. It is a Phase 2 study designed to examine the efficacy and tolerability of subcutaneously once-weekly tirzepatide compared with placebo in patients with type 2 diabetes who have inadequate glycemic control with diet and exercise alone or with a stable dose of metformin. The study was designed per below and conducted to refine the escalation scheme.

Measured: Nausea Vomiting and Diarrhea: m, number of patients who experienced new event during interval

tirzepatide [LY]
m = 1;: LY15 mg-Group 1 (tirzepatide 2.5 mg × 2, 5 mg × 2, 10 mg × 4, 15 mg × 4 once weekly), T/Wk 3
m = 13;: LY15 mg-Group 2 (tirzepatide 2.5 mg × 4, 7.5 mg × 4, 15 mg × 4 once weekly), Overall
m = 3;: LY15 mg-Group 1 (tirzepatide 2.5 mg × 2, 5 mg × 2, 10 mg × 4, 15 mg × 4 once weekly), T/Wk 1 | LY15 mg-Group 1 (tirzepatide 2.5 mg × 2, 5 mg × 2, 10 mg × 4, 15 mg × 4 once weekly), T/Wk 10 | LY15 mg-Group 2 (tirzepatide 2.5 mg × 4, 7.5 mg × 4, 15 mg × 4 once weekly), T/Wk 3 | LY15 mg-Group 2 (tirzepatide 2.5 mg × 4, 7.5 mg × 4, 15 mg × 4 once weekly), T/Wk 6 | LY15 mg-Group 2 (tirzepatide 2.5 mg × 4, 7.5 mg × 4, 15 mg × 4 once weekly), T/Wk 11
m = 4;: LY15 mg-Group 1 (tirzepatide 2.5 mg × 2, 5 mg × 2, 10 mg × 4, 15 mg × 4 once weekly), T/Wk 8 | LY15 mg-Group 2 (tirzepatide 2.5 mg × 4, 7.5 mg × 4, 15 mg × 4 once weekly), T/Wk 0 | LY15 mg-Group 2 (tirzepatide 2.5 mg × 4, 7.5 mg × 4, 15 mg × 4 once weekly), T/Wk 1
m = 0;: LY15 mg-Group 1 (tirzepatide 2.5 mg × 2, 5 mg × 2, 10 mg × 4, 15 mg × 4 once weekly), T/Wk 7 | LY15 mg-Group 1 (tirzepatide 2.5 mg × 2, 5 mg × 2, 10 mg × 4, 15 mg × 4 once weekly), T/Wk 9 | LY15 mg-Group 1 (tirzepatide 2.5 mg × 2, 5 mg × 2, 10 mg × 4, 15 mg × 4 once weekly), T/Wk 12 | LY15 mg-Group 2 (tirzepatide 2.5 mg × 4, 7.5 mg × 4, 15 mg × 4 once weekly), Follow-up | LY15 mg-Group 2 (tirzepatide 2.5 mg × 4, 7.5 mg × 4, 15 mg × 4 once weekly), T/Wk 10 | LY15 mg-Group 2 (tirzepatide 2.5 mg × 4, 7.5 mg × 4, 15 mg × 4 once weekly), T/Wk 12
m = 6;: LY15 mg-Group 1 (tirzepatide 2.5 mg × 2, 5 mg × 2, 10 mg × 4, 15 mg × 4 once weekly), T/Wk 5 | LY15 mg-Group 2 (tirzepatide 2.5 mg × 4, 7.5 mg × 4, 15 mg × 4 once weekly), T/Wk 4
m = 2;: LY15 mg-Group 1 (tirzepatide 2.5 mg × 2, 5 mg × 2, 10 mg × 4, 15 mg × 4 once weekly), T/Wk 2 | LY15 mg-Group 1 (tirzepatide 2.5 mg × 2, 5 mg × 2, 10 mg × 4, 15 mg × 4 once weekly), T/Wk 6 | LY15 mg-Group 1 (tirzepatide 2.5 mg × 2, 5 mg × 2, 10 mg × 4, 15 mg × 4 once weekly), T/Wk 11 | LY15 mg-Group 2 (tirzepatide 2.5 mg × 4, 7.5 mg × 4, 15 mg × 4 once weekly), T/Wk 2 | LY15 mg-Group 2 (tirzepatide 2.5 mg × 4, 7.5 mg × 4, 15 mg × 4 once weekly), T/Wk 5 | LY15 mg-Group 2 (tirzepatide 2.5 mg × 4, 7.5 mg × 4, 15 mg × 4 once weekly), T/Wk 7 | LY15 mg-Group 2 (tirzepatide 2.5 mg × 4, 7.5 mg × 4, 15 mg × 4 once weekly), T/Wk 9
m = 5;: LY15 mg-Group 1 (tirzepatide 2.5 mg × 2, 5 mg × 2, 10 mg × 4, 15 mg × 4 once weekly), T/Wk 4 | LY15 mg-Group 2 (tirzepatide 2.5 mg × 4, 7.5 mg × 4, 15 mg × 4 once weekly), T/Wk 8
